Where no end group is shown, it is not given here. [ ]: non-standard residue; d: D form. The star is where a group is joined. Decanoyl = CCCCCCCCCC(=O)*; Aib = CC(C)(N)C(=O)O
T1: human GIPR (glucose-dependent insulinotropic polypeptide receptor) (human, UniProt P48546 22-466)
T1 sequence (looked up): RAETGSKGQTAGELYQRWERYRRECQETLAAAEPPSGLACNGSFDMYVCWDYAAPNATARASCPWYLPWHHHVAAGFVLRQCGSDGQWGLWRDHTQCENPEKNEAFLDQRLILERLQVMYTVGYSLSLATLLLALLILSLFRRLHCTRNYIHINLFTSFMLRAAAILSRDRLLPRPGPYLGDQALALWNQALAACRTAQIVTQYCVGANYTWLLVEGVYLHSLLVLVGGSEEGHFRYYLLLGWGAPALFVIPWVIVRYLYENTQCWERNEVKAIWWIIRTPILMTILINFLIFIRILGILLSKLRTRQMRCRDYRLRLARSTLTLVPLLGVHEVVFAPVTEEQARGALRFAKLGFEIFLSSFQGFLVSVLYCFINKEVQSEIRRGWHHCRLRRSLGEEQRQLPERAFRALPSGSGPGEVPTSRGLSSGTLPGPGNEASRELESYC

T2: human GLP-2R (glucagon-like peptide-2 receptor) (human, UniProt O95838 1-553)
T2 sequence (looked up): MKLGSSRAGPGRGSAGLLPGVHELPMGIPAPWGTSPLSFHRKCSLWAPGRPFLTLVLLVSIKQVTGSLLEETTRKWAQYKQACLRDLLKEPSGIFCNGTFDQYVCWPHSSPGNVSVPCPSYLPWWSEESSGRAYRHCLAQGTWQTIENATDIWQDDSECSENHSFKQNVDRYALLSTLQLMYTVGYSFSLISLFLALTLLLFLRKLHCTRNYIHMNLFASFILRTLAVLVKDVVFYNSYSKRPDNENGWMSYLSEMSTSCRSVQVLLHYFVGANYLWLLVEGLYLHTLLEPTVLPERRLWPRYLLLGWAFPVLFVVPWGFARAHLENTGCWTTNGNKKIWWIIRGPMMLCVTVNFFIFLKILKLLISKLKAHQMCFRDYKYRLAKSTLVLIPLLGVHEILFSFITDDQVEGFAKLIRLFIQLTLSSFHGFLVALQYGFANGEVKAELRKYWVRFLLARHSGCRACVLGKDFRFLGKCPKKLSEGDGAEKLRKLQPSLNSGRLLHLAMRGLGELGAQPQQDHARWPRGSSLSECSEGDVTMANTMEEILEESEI


Key:
Test in all cases: cell-based or functional assay
[1] = target: T1, human GIPR (glucose-dependent …)
[2] = target: T2, human GLP-2R (glucagon-like peptide-2 …)
[3] = target: human GLP-1R (glucagon-like peptide-1 receptor) (human, UniProt P43220 24-463)

| EC50 (nM) GIPR [1] [nM] | Efficacy GIPR [1] | pEC50 GIPR [1] | EC50 (nM) GLP-2R [2] [nM] | Efficacy GLP-2R [2] | logEC50 GLP-2R [2] | EC50 (nM) GLP-1R [3] [nM] | Efficacy GLP-1R [3] | logEC50 GLP-1R [3] | Binder |
| --- | --- | --- | --- | --- | --- | --- | --- | --- | --- |
| 1.12 | 99 | 9 | – | – | – | 2.24 | 98 | 8.7 | H-H[Aib]DGTFISDYSTILDNLAAREFINWLIQTKITK(Decanoyl)-NH2 (SMILES CCCCCCCCCC(=O)NCCCC[C@H](NC(=O)[C@@H](NC(=O)[C@@H](NC(=O)[C@H](CCCCN)NC(=O)[C@@H](NC(=O)[C@H](CCC(N)=O)NC(=O)[C@@H](NC(=O)[C@H](CC(C)C)NC(=O)[C@H](Cc1c[nH]c2ccccc12)NC(=O)[C@H](CC(N)=O)NC(=O)[C@@H](NC(=O)[C@H](Cc1ccccc1)NC(=O)[C@H](CCC(=O)O)NC(=O)[C@H](CCCNC(=N)N)NC(=O)[C@H](C)NC(=O)[C@H](C)NC(=O)[C@H](CC(C)C)NC(=O)[C@H](CC(N)=O)NC(=O)[C@H](CC(=O)O)NC(=O)[C@H](CC(C)C)NC(=O)[C@@H](NC(=O)[C@@H](NC(=O)[C@H](CO)NC(=O)[C@H](Cc1ccc(O)cc1)NC(=O)[C@H](CC(=O)O)NC(=O)[C@H](CO)NC(=O)[C@@H](NC(=O)[C@H](Cc1ccccc1)NC(=O)[C@@H](NC(=O)CNC(=O)[C@H](CC(=O)O)NC(=O)C(C)(C)NC(=O)[C@@H](N)Cc1c[nH]cn1)[C@@H](C)O)[C@@H](C)CC)[C@@H](C)O)[C@@H](C)CC)[C@@H](C)CC)[C@@H](C)CC)[C@@H](C)O)[C@@H](C)CC)[C@@H](C)O)C(N)=O) [Compound 8] |
| 0.794 | 98 | 9.1 | – | – | – | 4.73 | 90 | 8.3 | H[Aib]DGTFISDYSTILDNIAARDFINWLIQTKITK(Decanoyl)-NH2 (N-terminus assumed; SMILES CCCCCCCCCC(=O)NCCCC[C@H](NC(=O)[C@@H](NC(=O)[C@@H](NC(=O)[C@H](CCCCN)NC(=O)[C@@H](NC(=O)[C@H](CCC(N)=O)NC(=O)[C@@H](NC(=O)[C@H](CC(C)C)NC(=O)[C@H](Cc1c[nH]c2ccccc12)NC(=O)[C@H](CC(N)=O)NC(=O)[C@@H](NC(=O)[C@H](Cc1ccccc1)NC(=O)[C@H](CC(=O)O)NC(=O)[C@H](CCCNC(=N)N)NC(=O)[C@H](C)NC(=O)[C@H](C)NC(=O)[C@@H](NC(=O)[C@H](CC(N)=O)NC(=O)[C@H](CC(=O)O)NC(=O)[C@H](CC(C)C)NC(=O)[C@@H](NC(=O)[C@@H](NC(=O)[C@H](CO)NC(=O)[C@H](Cc1ccc(O)cc1)NC(=O)[C@H](CC(=O)O)NC(=O)[C@H](CO)NC(=O)[C@@H](NC(=O)[C@H](Cc1ccccc1)NC(=O)[C@@H](NC(=O)CNC(=O)[C@H](CC(=O)O)NC(=O)C(C)(C)NC(=O)[C@@H](N)Cc1c[nH]cn1)[C@@H](C)O)[C@@H](C)CC)[C@@H](C)O)[C@@H](C)CC)[C@@H](C)CC)[C@@H](C)CC)[C@@H](C)CC)[C@@H](C)O)[C@@H](C)CC)[C@@H](C)O)C(N)=O) [Compound 15] |
| 0.794 | 96 | 9.1 | 12.6 | 97 | 7.9 | – | – | – | H-H[Aib]DGTFISDYSTILENLAARDFINWLIQTKITK(Decanoyl)-NH2 (SMILES CCCCCCCCCC(=O)NCCCC[C@H](NC(=O)[C@@H](NC(=O)[C@@H](NC(=O)[C@H](CCCCN)NC(=O)[C@@H](NC(=O)[C@H](CCC(N)=O)NC(=O)[C@@H](NC(=O)[C@H](CC(C)C)NC(=O)[C@H](Cc1c[nH]c2ccccc12)NC(=O)[C@H](CC(N)=O)NC(=O)[C@@H](NC(=O)[C@H](Cc1ccccc1)NC(=O)[C@H](CC(=O)O)NC(=O)[C@H](CCCNC(=N)N)NC(=O)[C@H](C)NC(=O)[C@H](C)NC(=O)[C@H](CC(C)C)NC(=O)[C@H](CC(N)=O)NC(=O)[C@H](CCC(=O)O)NC(=O)[C@H](CC(C)C)NC(=O)[C@@H](NC(=O)[C@@H](NC(=O)[C@H](CO)NC(=O)[C@H](Cc1ccc(O)cc1)NC(=O)[C@H](CC(=O)O)NC(=O)[C@H](CO)NC(=O)[C@@H](NC(=O)[C@H](Cc1ccccc1)NC(=O)[C@@H](NC(=O)CNC(=O)[C@H](CC(=O)O)NC(=O)C(C)(C)NC(=O)[C@@H](N)Cc1c[nH]cn1)[C@@H](C)O)[C@@H](C)CC)[C@@H](C)O)[C@@H](C)CC)[C@@H](C)CC)[C@@H](C)CC)[C@@H](C)O)[C@@H](C)CC)[C@@H](C)O)C(N)=O) [Compound 7] |

Continued, binder first:

| Binder | EC50 (nM) GIPR [1] [nM] | Efficacy GIPR [1] | pEC50 GIPR [1] | EC50 (nM) GLP-2R [2] [nM] | Efficacy GLP-2R [2] | logEC50 GLP-2R [2] | EC50 (nM) GLP-1R [3] [nM] | Efficacy GLP-1R [3] | logEC50 GLP-1R [3] |
| --- | --- | --- | --- | --- | --- | --- | --- | --- | --- |
| H[Aib]DGTFISDYSTILDLLAARDFINWLIQTKITK(Decanoyl)-NH2 (N-terminus assumed; SMILES CCCCCCCCCC(=O)NCCCC[C@H](NC(=O)[C@@H](NC(=O)[C@@H](NC(=O)[C@H](CCCCN)NC(=O)[C@@H](NC(=O)[C@H](CCC(N)=O)NC(=O)[C@@H](NC(=O)[C@H](CC(C)C)NC(=O)[C@H](Cc1c[nH]c2ccccc12)NC(=O)[C@H](CC(N)=O)NC(=O)[C@@H](NC(=O)[C@H](Cc1ccccc1)NC(=O)[C@H](CC(=O)O)NC(=O)[C@H](CCCNC(=N)N)NC(=O)[C@H](C)NC(=O)[C@H](C)NC(=O)[C@H](CC(C)C)NC(=O)[C@H](CC(C)C)NC(=O)[C@H](CC(=O)O)NC(=O)[C@H](CC(C)C)NC(=O)[C@@H](NC(=O)[C@@H](NC(=O)[C@H](CO)NC(=O)[C@H](Cc1ccc(O)cc1)NC(=O)[C@H](CC(=O)O)NC(=O)[C@H](CO)NC(=O)[C@@H](NC(=O)[C@H](Cc1ccccc1)NC(=O)[C@@H](NC(=O)CNC(=O)[C@H](CC(=O)O)NC(=O)C(C)(C)NC(=O)[C@@H](N)Cc1c[nH]cn1)[C@@H](C)O)[C@@H](C)CC)[C@@H](C)O)[C@@H](C)CC)[C@@H](C)CC)[C@@H](C)CC)[C@@H](C)O)[C@@H](C)CC)[C@@H](C)O)C(N)=O) [Compound 4] | 1.12 | 102 | 9 | 28.2 | 92 | 7.6 | 25.1 | 82 | 7.6 |
| HXDGTFISDYSTILDNLAARDFINWLIQTKITK (Aib at position 2; K33 acylated with C10, K(C10); C-terminus -OH) [Compound 2] | – | 99 | – | – | 105 | – | – | 84 | – |
| H[Aib]DGTFISDYATILDNLAARDFINWLIQTKITK(Decanoyl)-OH (N-terminus assumed; SMILES CCCCCCCCCC(=O)NCCCC[C@H](NC(=O)[C@@H](NC(=O)[C@@H](NC(=O)[C@H](CCCCN)NC(=O)[C@@H](NC(=O)[C@H](CCC(N)=O)NC(=O)[C@@H](NC(=O)[C@H](CC(C)C)NC(=O)[C@H](Cc1c[nH]c2ccccc12)NC(=O)[C@H](CC(N)=O)NC(=O)[C@@H](NC(=O)[C@H](Cc1ccccc1)NC(=O)[C@H](CC(=O)O)NC(=O)[C@H](CCCNC(=N)N)NC(=O)[C@H](C)NC(=O)[C@H](C)NC(=O)[C@H](CC(C)C)NC(=O)[C@H](CC(N)=O)NC(=O)[C@H](CC(=O)O)NC(=O)[C@H](CC(C)C)NC(=O)[C@@H](NC(=O)[C@@H](NC(=O)[C@H](C)NC(=O)[C@H](Cc1ccc(O)cc1)NC(=O)[C@H](CC(=O)O)NC(=O)[C@H](CO)NC(=O)[C@@H](NC(=O)[C@H](Cc1ccccc1)NC(=O)[C@@H](NC(=O)CNC(=O)[C@H](CC(=O)O)NC(=O)C(C)(C)NC(=O)[C@@H](N)Cc1c[nH]cn1)[C@@H](C)O)[C@@H](C)CC)[C@@H](C)O)[C@@H](C)CC)[C@@H](C)CC)[C@@H](C)CC)[C@@H](C)O)[C@@H](C)CC)[C@@H](C)O)C(=O)O) [Compound 3] | – | 80 | 9.2 | 2.8 | 101 | 8.6 | 1.78 | 94 | 8.8 |
